Results on 1 molecule are retold here after patent publication US5882644A, “Monoclonal antibodies specific for the platelet derived growth factor β receptor and methods of use thereof” (Protein Design Labs, Inc., priority 1996, dated 1999).

Series [1] in a line: Pharmacokinetics in rats (plasma antibody by ELISA). The series is classed as in vivo, rat. As for the experimental part: In preliminary experiments to determine the pharmacokinetics of muM4TS.11 in rats, an initial dose of antibody was injected and blood samples obtained at 1, 2, 3, 6, 12, 24, 36, and 48 hr. Antibody levels in plasma were measured by ELISA. The half-life of the antibody in rats was approximately 1 day. […] (In humans, proportionally smaller and less frequent doses are likely to be sufficient for a humanized anti-PDGF-R β antibody such as HuM4TS.11 or HuM4TS.22 to be effective, because of the expected longer half-life in humans and higher affinity for human PDGF-R β of these non-immunogenic HuAbs).
For orientation: An ELISA detects its analyte on a solid surface through an enzyme-linked reagent.

The subject of series [2] is PDGF-R β deletion fusion proteins. Briefly: ELISA epitope mapping with PDGF-R β deletion fusion proteins. Format: binding, human. From the text: To localize the binding sites of the M4TS antibodies on the PDGF-R, a series of PDGF-R β deletion mutants, each consisting of one or more adjacent domains of the extracellular portion of the receptor, was constructed by standard methods including PCR. The deletion constructs were each cloned into an expression plasmid (FIG. 13A) where they were fused to the constant region of the human lambda-1 immunoglobulin light chain, to facilitate detection in ELISA. The constructs were as follows (see FIG. 13B):
These PDGF-R β deletion fusion proteins were transiently expressed, by transfecting 10 μg of the respective expression plasmids into approximately 10^7 S194 mouse myeloma cells (ATCC TIB 19) using the DEAE-dextran method in accordance with the method described by Queen et al. (1984) Mol. Cell. Biol. 4:1042. After the transfected cells had died (4-5 days) and been removed by centrifugation, the culture supernatants containing the PDGF-R β deletion proteins were used in ELISA assays, 100 μl/well. First, the relative levels of the various PDGF-R β deletion proteins were measured in an ELISA where the plate was coated with goat anti-human lambda antibody (Tago) and the proteins detected with HRP-conjugated goat anti-human lambda antibody. […] To determine the ability of the antibodies to bind to each deletion protein, an ELISA was performed in which goat anti-human lambda antibody was used to coat the plate, followed by the cell supernatant and then 0.1 μg of the appropriate antibody, and then bound antibody detected with HRP-conjugated goat-anti-mouse Ig or goat-anti-human Ig antibody as appropriate (Tago). As a positive control, purified soluble PDGF-R β (Example 1) was coated directly on certain wells of the plate (denoted D1-5 in FIG. 14).

In series [3] the test system is CHO transfectant cell line expressing PDGF-R β (CHO C4). The series is described as follows: Inhibition of PDGF BB-induced proliferation (3H-thymidine) of CHO C4 cells. Format: cell-based, Chinese hamster. How it is done: To determine the ability of muM4TS.11 and muM4TS.22 to block PDGF-mediated proliferation, a CHO transfectant cell line expressing PDGF-R β (CHO C4) was generated, as described above. Proliferation of this line, as measured by incorporation of ^3 H-thymidine by DNA synthesis, is stimulated several-fold by PDGF BB. The CHO PDGF-R β transfectants were plated in a 96-well tissue culture plate at about 50,000 cells/well in Ham's F-12+10% FCS and incubated for 1-2 days. The medium was removed, and the cells were washed once with serum-free medium (Ham's F-12+1 mg/ml BSA) and incubated in this media for 1-2 days to put them in a quiescent state. The appropriate amount of antibody in serum-free medium was added, and after 1-3 hours, 50 ng/ml PDGF BB was added. After overnight incubation, 1 μCi ^3 H-thymidine was added, and after a final 4 hour incubation, the cells were harvested using a PHD cell harvester (Cambridge Technology) and analyzed with a scintillation counter.

Series [4] relates to human primary fibroblast cell line AG1523B. Briefly: Inhibition of PDGF BB-stimulated proliferation of AG1523B fibroblasts. Format: cell-based. The note with it: 300 ng/ml PDGF BB.
In series [5] the test system is Rat aortic smooth muscle cells (SMC). Briefly: Inhibition of PDGF BB-mediated proliferation of rat aortic smooth muscle cells. The series is classed as cell-based. As to conditions: PDGF BB 10 ng/ml, 3H-thymidine 19 to 26 hr. How it is done: To determine whether muM4TS.11 inhibits PDGF-mediated proliferation of rat cells in vitro, the following experiment was performed. Rat aortic smooth muscle cells (SMC) were plated at a 1:3 split ratio in 10% FCS and made quiescent 24 hours later by changing the medium to 1% control process serum replacement II (Sigma, St. Louis, Mo.). Three to five days later, the cells were stimulated with PDGF BB (10 ng/ml). At the time of stimulation, increasing doses of the specific MAb or mouse IgG (control) were added. Cell proliferation was determined by measuring ^3 H-thymidine incorporated into DNA when the cells were pulsed from 19 to 26 hr after stimulation. MuM4TS.11 inhibited proliferation in a concentration-dependent manner with an IC50 of about 0.5 μg/ml.

“Also recorded” adds a separate entry of the source.

B1: muM4TS.11: murine monoclonal antibody to PDGF-R β, variable regions SEQ ID NOS:10 and 12; epitope in fourth extracellular domain (antibody, V domains shown)
VL: METETLLLWVLLLWVPGSTGDIVLTQSPPSLAVSLGQRATISCRASESVDSYGNSFMHWYQQKPGQPPKLLIYRASNLESGIPARFSGGGSRTDFTLTINPVEADDVATYYCQQSNEDPPTFGGGTKLEIK
VH: MERHWIFLFLFSVTAGVHSQVQLQQSGAEVAKPGASVKMSCKASGYTFTNCWMHWVKQRPGQGLEWIGYINPTTGYSEYNQNFKDKATLTADKSSNTAYIQLSSLTSEDSAVYYCTSNYGHYDWFANWGQGTLVT
For the molecule B1, the “time antibody level stays above the in vitro inhibitory concentration” value in series [1] (4 mg bolus, then 2 mg IV every 24 hr for 4 days) is given as “at least 7 days”. Moreover, the “half-life of the antibody” value in series [1] (preliminary experiments, plasma) is on record as “approximately 1 day”. Also, in series [2] (0.1 μg antibody), the “binding to deletion proteins containing only first through third domains” value was “do not bind” and the “binding to protein D1-4” value is listed as “do bind to protein D1-4”. Besides, the “binding to protein D5 (fifth domain only)” value in series [2] (separate experiment) is “none of muM4TS.11 and HuM4TS.11, muM4TS.22 and HuM4TS.22 bound to it”. Moreover, the “inhibition of PDGF-mediated proliferation compared with another antibody” value in series [3] was “about two times more effectively than with HuM4TS.11”. Besides, the “inhibition of PDGF BB-induced proliferation” value in series [3] (50 ng/ml PDGF BB, sufficient antibody concentration) is “completely inhibited proliferation of the cells induced by PDGF BB; also recorded: almost completely inhibited the stimulation of proliferation by PDGF BB”. In series [4], the “inhibition of stimulation of proliferation by PDGF BB” value was “effectively inhibited the stimulation of proliferation by PDGF BB”. Further, in series [5], the “IC50 of inhibition of proliferation” value is “about 0.5 μg/ml”.
